Residue numbers refer to the chain shown, from its start. cellulose membrane = Whatman 540 cellulose membrane solid support derivatized with two β-Ala residues; βAla = NCCC(=O)O
Assays:
[1] = biological target: C-terminally hexahistidine-tagged SlyD from Escherichia coli (E. coli) (UniProt P0A9K9); assay: ITC; VP-ITC, 30°C, 10 mM potassium phosphate pH 7.6 or 7.8; His-tagged SlyD or variant 30 μM in the cell; HiPIP precursor injected, 200 μM (Fig 3) or 100 μM (Fig 4)
[2] = biological target: T1, SlyD from Escherichia coli, C-terminally tagged with a Strep-tag II (E. coli, UniProt P0A9K9 1-196, 35S-methionine label (peptide arrays)); assay: peptide or protein array; 13-mer peptides synthesised in spots on cellulose membrane; 35S-methionine-labelled Strep-tagged SlyD incubated 2 h at room temperature, washed in TBS (31 mM Tris-HCl pH 7.6, 170 mM NaCl, 6.4 mM KCl), phosphorimaging; details: both partners purified
T1 construct: SlyD, chaperone and FKBP-family prolyl isomerase, Escherichia coli; also called Strep-tagged SlyD; 35S-labeled SlyD; source: E. coli BW25113 ΔdnaK (pBW-slyD-strep), soluble, purified (StrepTactin) for the peptide arrays; not shown: Strep-tag II, C-terminal, kept
T1 sequence: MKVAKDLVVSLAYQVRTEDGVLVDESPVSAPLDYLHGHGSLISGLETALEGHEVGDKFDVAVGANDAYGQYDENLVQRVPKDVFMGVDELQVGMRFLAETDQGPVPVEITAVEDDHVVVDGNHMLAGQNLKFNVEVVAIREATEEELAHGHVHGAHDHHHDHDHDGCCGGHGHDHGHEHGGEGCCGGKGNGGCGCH

[3] = biological target: SlyD F96A, C-terminally His-tagged (E. coli, UniProt P0A9K9 1-196, F96A); assay: ITC
[4] = biological target: SlyD F96N, C-terminally His-tagged (E. coli, UniProt P0A9K9 1-196, F96N); assay: ITC
[5] = biological target: SlyD F96G, C-terminally His-tagged (E. coli, UniProt P0A9K9 1-196, F96G); assay: ITC
[6] = biological target: SlyD E89A, C-terminally His-tagged (E. coli, UniProt P0A9K9 1-196, E89A); assay: ITC
[7] = biological target: SlyD F84N/F96N, C-terminally His-tagged (E. coli, UniProt P0A9K9 1-196, F84N | F96N); assay: ITC
[8] = biological target: SlyD F84N, C-terminally His-tagged (E. coli, UniProt P0A9K9 1-196, F84N); assay: ITC
[9] = biological target: SlyD E113A, C-terminally His-tagged (E. coli, UniProt P0A9K9 1-196, E113A); assay: ITC
[10] = biological target: T2, C-terminally hexahistidine-tagged SlyD from Escherichia coli (E. coli, UniProt P0A9K9 1-196); assay: ITC
T2 chain: T1 sequence

[11] = biological target: single-exchange SlyD variants of the hydrophobic active site (F84A, F84N, F96A, F96G, F96N); assay: ITC; VP-ITC, 30°C, 10 mM potassium phosphate pH 7.6 or 7.8; His-tagged SlyD or variant 30 μM in the cell; HiPIP precursor injected, 200 μM (Fig 3) or 100 μM (Fig 4)
[12] = biological target: T3, C-terminally hexahistidine-tagged SlyD from Escherichia coli (E. coli, UniProt P0A9K9 1-196); assay: as above; details: both partners purified
T3 construct: SlyD, chaperone and FKBP-family prolyl isomerase, Escherichia coli; also called His-tagged SlyD; wild type; not shown: His6, C-terminal, kept
T3 sequence: T1 sequence

[13] = biological target: T4, SlyD D101A, C-terminally His-tagged (E. coli, UniProt P0A9K9 1-196, D101A); assay: as above; details: both partners purified
T4 construct: SlyD, Escherichia coli; not shown: His6, C-terminal, kept
T4 sequence: T1 sequence with D101A

[14] = biological target: T5, SlyD E108A, C-terminally His-tagged (E. coli, UniProt P0A9K9 1-196, E108A); assay: as above; details: both partners purified
T5 construct: SlyD, Escherichia coli; not shown: His6, C-terminal, kept
T5 sequence: T1 sequence with E108A

[15] = biological target: T6, SlyD Y68S, C-terminally hexahistidine-tagged (Escherichia coli, UniProt P0A9K9 1-196, Y68S); assay: ITC; VP-ITC, 30°C, 10 mM potassium phosphate buffer (pH 7.6 or 7.8); SlyD variant 30 μM in the cell, HiPIP precursor 100 μM injected (2x 22 injections of 10 μL); details: both partners purified
T6 construct: SlyD of Escherichia coli (FKBP-type prolyl isomerase and chaperone); not shown: His6, C-terminal, kept
T6 sequence: T1 sequence with Y68S

[16] = biological target: T7, SlyD E73A, C-terminally hexahistidine-tagged (Escherichia coli, UniProt P0A9K9 1-196, E73A); assay: as above; details: both partners purified
T7 construct: SlyD of Escherichia coli (FKBP-type prolyl isomerase and chaperone); not shown: His6, C-terminal, kept
T7 sequence: T1 sequence with E73A

[17] = biological target: T8, SlyD E89A, C-terminally hexahistidine-tagged (Escherichia coli, UniProt P0A9K9 1-196, E89A); assay: as above; details: both partners purified
T8 construct: SlyD of Escherichia coli (FKBP-type prolyl isomerase and chaperone); not shown: His6, C-terminal, kept
T8 sequence: T1 sequence with E89A

[18] = biological target: T9, SlyD E113A, C-terminally hexahistidine-tagged (Escherichia coli, UniProt P0A9K9 1-196, E113A); assay: as above; details: both partners purified
T9 construct: SlyD of Escherichia coli (FKBP-type prolyl isomerase and chaperone); not shown: His6, C-terminal, kept
T9 sequence: T1 sequence with E113A

[19] = biological target: T10, SlyD D115A, C-terminally hexahistidine-tagged (Escherichia coli, UniProt P0A9K9 1-196, D115A); assay: as above; details: both partners purified
T10 construct: SlyD of Escherichia coli (FKBP-type prolyl isomerase and chaperone); not shown: His6, C-terminal, kept
T10 sequence: T1 sequence with D115A

## HiPIP precursor with an RR>KK exchange (from UniProt P00260 38-122) (natural protein)
[1]
  Kd: 1180 nM
  dH: -7.7 kcal/mol

B1: twin-arginine peptide in an oligoglycine environment (GGGGGXXGGGGGG, X = R) (peptide)
peptide: Ac-GGGGGRRGGGGGG-{βAla-βAla-cellulose membrane}
notes: the printed pattern GGGGGXXGGGGGG with X = R; The acetyl group and the spacer are told in the methods for the spot synthesis in general; also called arginines in a glycine environment; source: synthetic peptide, spot synthesis on cellulose membrane
[2]
  binding result: binds

B2: twin-lysine peptide in an oligoglycine environment (GGGGGXXGGGGGG, X = K) (peptide)
peptide: Ac-GGGGGKKGGGGGG-{βAla-βAla-cellulose membrane}
notes: the printed pattern GGGGGXXGGGGGG with X = K; The acetyl group and the spacer are told in the methods for the spot synthesis in general; also called lysines in a glycine environment; source: synthetic peptide, spot synthesis on cellulose membrane
[2]
  binding result: binds

B3: wild type HiPIP precursor from Allochromatium vinosum (natural protein, UniProt P00260 1-122, looked up)
chain: MSDKPISKSRRDAVKVMLGTAAAIPMINLVGFGTARASAPANAVAADDATAIALKYNQDATKSERVAAARPGLPPEEQHCANCQFMQADAAGATDEWKGCQLFPGKLINVNGWCASWTLKAG
notes: HiPIP (high-potential iron-sulfur protein), Allochromatium vinosum; the precursor with its Tat signal peptide; Called a fully folded Tat substrate; also called RR-HiPIP; signal-peptide-containing HiPIP precursor
[3]
  Kd: 4900 nM
[4]
  Kd: 8900 nM
[5]
  Kd: 5700 nM
[6]
  Kd: 400 nM
[7]
  Kd: > 360000 nM
[8]
  Kd: 6600 nM
[9]
  Kd: 500 nM
[10]
  Kd: 400 nM
[11]
  Kd: 4000 to 10000 nM
[12]
  Kd: ~350 nM
  dH: ~-9.06 kcal/mol
[13]
  Kd: 950 nM
[14]
  Kd: 1820 nM

B4: HiPIP precursor with an RR>QQ exchange (natural protein)
chain: B3 chain with R10Q, R11Q
modifications: HiPIP precursor; [4Fe-4S] cluster presumed; RR>QQ positions derived from primer hip-QQ-F, which encodes DKPISKSQQDAVKVML
[12]
  Kd: 38700 ± 2000 nM

B5: HiPIP precursor (RR-HiPIP) from Allochromatium vinosum (natural protein)
chain: B3 chain
modifications: HiPIP precursor; fully folded, [4Fe-4S] cluster presumed; signal peptide retained
[15]
  Kd: 299 nM
[16]
  Kd: 321 nM
[17]
  Kd: 380 nM
[18]
  Kd: 493 nM
[19]
  Kd: 272 nM

From publication PMC11198818, “Positive charges promote the recognition of proteins by the chaperone SlyD from Escherichia coli” (PLOS ONE, 2024)
